Experimental data published in paper PMC7311520, “β-carboline chemical signals induce reveromycin production through a LuxR family regulator in Streptomyces sp. SN-593” (Scientific Reports, 2020).
One block for each molecule: values may come before it.

Assays:
[1] = target: T1, RevU (LuxR family transcriptional regulator) (Actinacidiphila reveromycinica, UniProt G1UDV5); assay: SPR (Biacore T200, His6-RevU immobilized on NTA chip); supported by BR-1 bead pull-down with free BR-1 competition; format: binding
T1 construct: purified His6-tagged RevU expressed in E. coli from a codon-optimized synthetic gene

[2] = target: T2, RevU (LuxR family regulator), His6-tagged (Streptomyces sp. SN-593 (S. …, UniProt G1UDV5)); assay: SPR; compound 3 (tetrahydro BR-1), 125 nM RevU; not enhanced; SPR: 10 mM HEPES pH 7.4, 3 mM EDTA, 150 mM NaCl, 0.05% Tween-20, 25 C, RevU 3.9-250 nM; BLI: 10 mM HEPES pH 7.3, 3 mM EDTA, 150 mM NaCl, 0.05% Tween-20, room temperature; conditions: protein: recombinant; tags: His6 (pColdI); chain copies: 2; label: 5'-biotin; blunt
T2 sequence: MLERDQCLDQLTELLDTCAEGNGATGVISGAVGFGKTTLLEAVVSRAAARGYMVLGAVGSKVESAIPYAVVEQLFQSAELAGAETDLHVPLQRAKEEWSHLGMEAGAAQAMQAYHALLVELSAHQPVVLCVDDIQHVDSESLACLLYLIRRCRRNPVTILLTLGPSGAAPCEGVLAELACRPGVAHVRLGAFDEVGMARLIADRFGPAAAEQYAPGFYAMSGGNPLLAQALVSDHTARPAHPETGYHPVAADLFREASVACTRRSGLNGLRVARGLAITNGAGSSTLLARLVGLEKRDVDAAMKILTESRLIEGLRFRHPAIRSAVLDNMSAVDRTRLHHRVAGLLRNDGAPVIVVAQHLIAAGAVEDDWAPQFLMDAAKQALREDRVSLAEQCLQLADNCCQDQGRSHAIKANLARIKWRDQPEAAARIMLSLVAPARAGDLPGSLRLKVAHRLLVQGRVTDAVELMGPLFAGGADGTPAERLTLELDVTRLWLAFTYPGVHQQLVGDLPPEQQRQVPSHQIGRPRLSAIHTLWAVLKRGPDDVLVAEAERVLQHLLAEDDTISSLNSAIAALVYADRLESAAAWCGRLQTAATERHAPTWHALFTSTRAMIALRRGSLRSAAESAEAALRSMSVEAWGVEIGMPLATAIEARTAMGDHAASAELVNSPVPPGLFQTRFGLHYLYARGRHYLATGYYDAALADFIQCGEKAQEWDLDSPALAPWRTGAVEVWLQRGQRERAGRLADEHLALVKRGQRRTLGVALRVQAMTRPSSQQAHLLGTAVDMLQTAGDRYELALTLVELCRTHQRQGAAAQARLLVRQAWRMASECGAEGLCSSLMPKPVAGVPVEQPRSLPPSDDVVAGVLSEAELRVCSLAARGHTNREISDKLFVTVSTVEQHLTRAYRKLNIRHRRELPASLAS

[3] = target: T2, RevU (LuxR family regulator), …; assay: SPR; no BR-1; SPR: 10 mM HEPES pH 7.4, 3 mM EDTA, 150 mM NaCl, 0.05% Tween-20, 25 C, RevU 3.9-250 nM; BLI: 10 mM HEPES pH 7.3, 3 mM EDTA, 150 mM NaCl, 0.05% Tween-20, room temperature; conditions: protein: recombinant; tags: His6 (pColdI); chain copies: 2; label: 5'-biotin; blunt

Kd [1]: 1.31 µM
Molecule: NC(=O)c1cc2c([nH]c3ccccc32)c(-c2ccccc2)n1 [compound 1, BR-1]

B1: Fragment 1-1 (dsDNA)
DNA 1: ACGCCGCAACGACCAACAGAGG
DNA 2: CCTCTGTTGGTCGTTGCGGCGT
binding result [2]: binds

B2: Fragment 4 (dsDNA)
DNA 1: GATTATGCGTCGCATTCGGTGTTTGTGGAGTTGATCGAGGATCGGGTTCT
DNA 2: AGAACCCGATCCTCGATCAACTCCACAAACACCGAATGCGACGCATAATC
binding result [3]: binds
